Values quoted from earlier work, collected in publication PMC4980809.

Molecular target: titin ZR7 (Homo sapiens) (UniProt Q8WZ42)
Sequence (Q8WZ42 692-740): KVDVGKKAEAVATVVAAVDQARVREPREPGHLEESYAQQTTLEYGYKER

alpha-actinin-2 EF3/4 domain, sequence (P35609 823-894): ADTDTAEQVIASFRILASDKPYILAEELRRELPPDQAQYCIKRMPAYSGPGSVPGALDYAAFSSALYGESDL

Kd: 380 nM
Substance: alpha-actinin-2 EF3/4 domain (from UniProt P35609)
